Source: IntAct's records for PubMed 16280327

B1: B-cell lymphoma/leukemia 10 (Homo sapiens), O95999 (parent)
chain: MEPTAPSLTEEDLTEVKKDALENLRVYLCEKIIAERHFDHLRAKKILSREDTEEISCRTSSRKRAGKLLDYLQENPKGLDTLVESIRREKTQNFLIQKITDEVLKLRNIKLEHLKGLKCSSCEPFPDGATNNLSRSNSDESNFSEKLRASTVMYHPEGESSTTPFFSTNSSLNLPVLEVGRTENTIFSSTTLPRPGDPGAPPLPPDLQLEEEGTCANSSEMFLPLRSRTVSRQ
partner: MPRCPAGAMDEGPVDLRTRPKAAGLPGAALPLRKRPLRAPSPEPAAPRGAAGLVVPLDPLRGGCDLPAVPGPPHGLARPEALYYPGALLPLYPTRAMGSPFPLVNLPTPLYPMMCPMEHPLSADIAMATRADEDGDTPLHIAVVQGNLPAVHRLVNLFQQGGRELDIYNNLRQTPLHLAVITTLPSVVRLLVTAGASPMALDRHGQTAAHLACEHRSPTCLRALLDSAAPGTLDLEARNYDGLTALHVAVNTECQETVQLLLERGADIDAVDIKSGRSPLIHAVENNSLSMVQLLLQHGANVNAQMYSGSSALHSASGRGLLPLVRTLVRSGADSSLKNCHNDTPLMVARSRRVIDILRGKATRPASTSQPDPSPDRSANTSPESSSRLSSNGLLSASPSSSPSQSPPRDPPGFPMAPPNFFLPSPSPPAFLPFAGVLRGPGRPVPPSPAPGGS

Variants of: B1
Settings: with bcl3_human BCL3, P20749

Variant | effect of a mutation on the interaction
MEPTAPSLTEEDLTEVKKDALENLRVYLCEKIIAERHFDHLRAKKILSREDTEEISCRTSSRKRAGKLLDYLQENPKGLDTLVESIRREKTQNFLIQKITDEVLKLRNIKLEHLKGLKCSSCEPFPDGATNNLSRSNSDESNFSEKLRASTVMYHPEGESSTTPFFSTNSSLNLPVLEVGRTENTIFSSTTLPRPGDPGAPPLPPDLQLEEEGTCANDSEMFLPLRSRTVSRQ [S218D] | increasing interaction
MEPTAPSLTEEDLTEVKKDALENLRVYLCEKIIAERHFDHLRAKKILSREDTEEISCRTSSRKRAGKLLDYLQENPKGLDTLVESIRREKTQNFLIQKITDEVLKLRNIKLEHLKGLKCSSCEPFPDGATNNLSRSNSDESNFSEKLRASTVMYHPEGESSTTPFFSTNSSLNLPVLEVGRTENTIFSSTTLPRPGDPGAPPLPPDLQLEEEGTCANSSEMFLPLRSRTVDRQ [S231D] | increasing interaction
